In the Human Domainome abundance scans (Beltran et al. 2025) one finds abundance fitness data, which are given here for 33 substances.

± gives the uncertainty stated by the source.

The nature of this series: abundance fitness (aPCA) (normalised: wild type 0, dead -1); higher = more abundant; growth selection in yeast, the domain comes from the species named. The following applies: Homo sapiens.
“Lipoamide acyltransferase component of branched-chain alpha-keto acid dehydrogenase complex, mitochondrial R179L, P11182”: the abundance fitness is -0.083 ± 0.042.

In the case of “Lipoamide acyltransferase component of branched-chain alpha-keto acid dehydrogenase complex, mitochondrial R179M, P11182”, the abundance fitness is -0.087 ± 0.055.

Take “Lipoamide acyltransferase component of branched-chain alpha-keto acid dehydrogenase complex, mitochondrial R179N, P11182”: the abundance fitness was -0.156 ± 0.079.

As to “Lipoamide acyltransferase component of branched-chain alpha-keto acid dehydrogenase complex, mitochondrial R179P, P11182”, the abundance fitness is -1.11 ± 0.085.

Take “Lipoamide acyltransferase component of branched-chain alpha-keto acid dehydrogenase complex, mitochondrial R179Q, P11182”: the abundance fitness came to 0 ± 0.051.

“Lipoamide acyltransferase component of branched-chain alpha-keto acid dehydrogenase complex, mitochondrial R179S, P11182” had an abundance fitness of -0.212 ± 0.057.

In turn, “Lipoamide acyltransferase component of branched-chain alpha-keto acid dehydrogenase complex, mitochondrial R179T, P11182” showed an abundance fitness of -0.304 ± 0.091.

For the substance “Lipoamide acyltransferase component of branched-chain alpha-keto acid dehydrogenase complex, mitochondrial R179W, P11182”, the abundance fitness was -0.28 ± 0.049.

Regarding “Lipoamide acyltransferase component of branched-chain alpha-keto acid dehydrogenase complex, mitochondrial R199A, P11182”, the abundance fitness amounted to 0.016 ± 0.045.

Consider “Lipoamide acyltransferase component of branched-chain alpha-keto acid dehydrogenase complex, mitochondrial R199C, P11182”, for which the abundance fitness is -0.054 ± 0.065.

The substance “Lipoamide acyltransferase component of branched-chain alpha-keto acid dehydrogenase complex, mitochondrial R199E, P11182” had an abundance fitness of 0.088 ± 0.048.

“Lipoamide acyltransferase component of branched-chain alpha-keto acid dehydrogenase complex, mitochondrial R199G, P11182” registered an abundance fitness of -0.204 ± 0.036.

With “Lipoamide acyltransferase component of branched-chain alpha-keto acid dehydrogenase complex, mitochondrial R199I, P11182”, the abundance fitness was -0.142 ± 0.09.

“Lipoamide acyltransferase component of branched-chain alpha-keto acid dehydrogenase complex, mitochondrial R199K, P11182” yielded an abundance fitness of -0.033 ± 0.051.

On to “Lipoamide acyltransferase component of branched-chain alpha-keto acid dehydrogenase complex, mitochondrial R199L, P11182”, for which the abundance fitness was -0.173 ± 0.04.

Consider “Lipoamide acyltransferase component of branched-chain alpha-keto acid dehydrogenase complex, mitochondrial R199M, P11182”, for which the abundance fitness was -0.088 ± 0.088.

For the substance “Lipoamide acyltransferase component of branched-chain alpha-keto acid dehydrogenase complex, mitochondrial R199P, P11182”, the abundance fitness was -0.784 ± 0.079.

Take “Lipoamide acyltransferase component of branched-chain alpha-keto acid dehydrogenase complex, mitochondrial R199Q, P11182”: the abundance fitness was 0.045 ± 0.045.

On to “Lipoamide acyltransferase component of branched-chain alpha-keto acid dehydrogenase complex, mitochondrial R199S, P11182”, for which the abundance fitness was -0.08 ± 0.048.

For “Lipoamide acyltransferase component of branched-chain alpha-keto acid dehydrogenase complex, mitochondrial R199T, P11182”, the abundance fitness was -0.006 ± 0.062.

For “Lipoamide acyltransferase component of branched-chain alpha-keto acid dehydrogenase complex, mitochondrial R199V, P11182”, the abundance fitness is -0.129 ± 0.044.

For “Lipoamide acyltransferase component of branched-chain alpha-keto acid dehydrogenase complex, mitochondrial R199W, P11182”, the abundance fitness was -0.117 ± 0.046.

Regarding “Lipoamide acyltransferase component of branched-chain alpha-keto acid dehydrogenase complex, mitochondrial S189A, P11182”, the abundance fitness is -0.03 ± 0.04.

“Lipoamide acyltransferase component of branched-chain alpha-keto acid dehydrogenase complex, mitochondrial S189C, P11182” returned an abundance fitness of -0.111 ± 0.071.

On to “Lipoamide acyltransferase component of branched-chain alpha-keto acid dehydrogenase complex, mitochondrial S189E, P11182”, for which the abundance fitness is -0.001 ± 0.042.

“Lipoamide acyltransferase component of branched-chain alpha-keto acid dehydrogenase complex, mitochondrial S189F, P11182” displayed an abundance fitness of -0.343 ± 0.058.

With “Lipoamide acyltransferase component of branched-chain alpha-keto acid dehydrogenase complex, mitochondrial S189G, P11182”, the abundance fitness is -0.065 ± 0.039.

“Lipoamide acyltransferase component of branched-chain alpha-keto acid dehydrogenase complex, mitochondrial S189K, P11182” registered an abundance fitness of -0.135 ± 0.068.

“Lipoamide acyltransferase component of branched-chain alpha-keto acid dehydrogenase complex, mitochondrial S189L, P11182”: the abundance fitness is -0.45 ± 0.046.

The substance “Lipoamide acyltransferase component of branched-chain alpha-keto acid dehydrogenase complex, mitochondrial S189M, P11182” returned an abundance fitness of -0.264 ± 0.061.

“Lipoamide acyltransferase component of branched-chain alpha-keto acid dehydrogenase complex, mitochondrial S189P, P11182” came in with an abundance fitness of -0.232 ± 0.068.

In the case of “Lipoamide acyltransferase component of branched-chain alpha-keto acid dehydrogenase complex, mitochondrial S189Q, P11182”, the abundance fitness is -0.097 ± 0.054.

Regarding “Lipoamide acyltransferase component of branched-chain alpha-keto acid dehydrogenase complex, mitochondrial S189R, P11182”, the abundance fitness was -0.09 ± 0.039.
